First the molecules themselves.
B1: murine LPHN3^Lec-Olf, wild type, biotinylated at a C-terminal Avi-Tag [modified: biotin on the C-terminal Avi-Tag (enzymatic); biotin on the C-terminal Avi-Tag (enzymatic)] [murine] / murine FLRT2 full ectodomain, wild … (parent)
chain 1: PIPMAVVRRELSCESYPIELRCPGTDVIMIESANYGRTDDKICDSDPAQMENIRCYLPDAYKIMSQRCNNRTQCAVVAGPDVFPDPCPGTYKYLEVQYECVPYKVEQKVFLCPGLLKGVYQSEHLFESDHQSGAWCKDPLQASDKIYYMPWTPYRTDTLTEYSSKDDFIAGRPTTTYKLPHRVDGTGFVVYDGALFFNKERTRNIVKFDLRTRIKSGEAIIANANYHDTSPYRWGGKSDIDLAVDENGLWVIYATEQNNGKIVISQLNPYTLRIEGTWDTAYDKRSASNAFMICGILYVVKSVYEDDDNEATGNKIDYIYNTDQSKDSLVDVPFPNSYQYIAAVDYNPRDNLLYVWNNYHVVKYSLDFGPLD
chain 2: ACPSVCRCDRNFVYCNERSLTSVPLGIPEGVTVLYLHNNQINNAGFPAELHNVQSVHTVYLYGNQLDEFPMNLPKNVRVLHLQENNIQTISRAALAQLLKLEELHLDDNSISTVGVEDGAFREAISLKLLFLSKNHLSSVPVGLPVDLQELRVDENRIAVISDMAFQNLTSLERLIVDGNLLTNKGIAEGTFSHLTKLKEFSIVRNSLSHPPPDLPGTHLIRLYLQDNQINHIPLTAFANLRKLERLDISNNQLRMLTQGVFDHLSNLKQLTARNNPWFCDCSIKWVTEWLKYIPSSLNVRGFMCQGPEQVRGMAVRELNMNLLSCPTTTPGLPVFTPAPSTVSPTTQSPTLSVPSPSRGSVPPAPTPSKLPTIPDWDGRERVTPPISERIQLSIHFVNDTSIQVSWLSLFTVMAYKLTWVKMGHSLVGGIVQERIVSGEKQHLSLVNLEPRSTYRICLVPLDAFNYRTVEDTICSEATTHASYLNNGSNTASSHEQTTSHSMGSP

Variants of B1 are the subject of this assay. As to the kind of experiment: SPR. The conditions noted are these: with murine FLRT2 full ectodomain; for Kd: biotinylated LPHN3 Lec-Olf immobilized on streptavidin-coated Biacore chips, FLRT2 ectodomain injected as analyte, 1:1 binding model, parent: 18 nM; for response: maximum response at the highest FLRT2 ectodomain concentration plotted (about 2.3 µM), parent: 450, read off a plot. Background: SPR reads the build-up and loss of mass on a sensor chip optically.

For orientation: Kd means a measure of binding affinity in units of concentration. As to chain 1 PIPMAVVRRELSCESYPIELRCPGTDVIMIESANYGRTDDKICDSDPAQMENIRCYLPDAYKIMSQRCNNRTQCAVVAGPDVFPDPCPGTYKYLEVQYECVPYKVEQKVFLCPGLLKGVYQSEHLFESDHQSGAWCKDPLQASDKIYYMPWTNYTTDTLTEYSSKDDFIAGRPTTTYKLPHRVDGTGFVVYDGALFFNKERTRNIVKFDLRTRIKSGEAIIANANYHDTSPYRWGGKSDIDLAVDENGLWVIYATEQNNGKIVISQLNPYTLRIEGTWDTAYDKRSASNAFMICGILYVVKSVYEDDDNEATGNKIDYIYNTDQSKDSLVDVPFPNSYQYIAAVDYNPRDNLLYVWNNYHVVKYSLDFGPLD [chain 1 P153N R155T], the Kd came out at 980 nM and the response was determined as 460 RU.
The corresponding values for chain 1 PIPMAVVRRELSCESYPIELRCPGTDVIMIESANYGRTDDKICDSDPAQMENIRCYLPDAYKIMSQRCNNRTQCAVVAGPDVFPDPCPGTYKYLEVQYECVPYKVEQKVFLCPGLLKGVYQSEHLFESDHQSGAWCKDPLQASDKIYYMPWTPYRTDTLTEYSSKDDFIAGRPTTNYTLPHRVDGTGFVVYDGALFFNKERTRNIVKFDLRTRIKSGEAIIANANYHDTSPYRWGGKSDIDLAVDENGLWVIYATEQNNGKIVISQLNPYTLRIEGTWDTAYDKRSASNAFMICGILYVVKSVYEDDDNEATGNKIDYIYNTDQSKDSLVDVPFPNSYQYIAAVDYNPRDNLLYVWNNYHVVKYSLDFGPLD [chain 1 T176N K178T] are 460 nM and 400 RU.

Source of the values: publication PMC4396693, “Structural Basis of Latrophilin-FLRT Interaction” (Structure(London, England:1993), 2015).
